From patent US20220306729A1 (published 2022) come the findings set out here.

Some results are limits rather than exact numbers.

What is called EC50 is the midpoint of the concentration-response curve. A high value points to a less potent agent. As a reminder, the Kd is the equilibrium constant for the complex coming apart. A higher Kd goes with lower affinity.

Assay [1] addresses ZIKV envelope domain III (ZEDIII), polyhistidine-AviTag, made in HEK-293-6E cells. Put plainly: ELISA. Background: In an ELISA, binding on a coated surface is turned into a signal by an enzyme label.
Assay [2] addresses Human FcRn. Put plainly: SPR. (Surface plasmon resonance follows binding to a sensor surface in real time, without labels.)

B1: Z037 (antibody, V domains shown)
VH: QVQLQESGPGLVKPSETLSLTCSVSGYFISSGHYWGWIRQSPGKGLEWIASIYQSGSKFQTGNTYYNPSLESRVTISMDTSKNQFSLKLSSVTAADTAVYFCARDARSRSWDRTGFFGPWGQGILVTVSS
VL: EIVLTQSPGTLSLSPGERATLSCRASQSLSSSFLAWYQQKPGQSPRLLIYGTSSRDTGIPDRFSGSGSGTDFTLTISRLEPEDSAVYYCQQYGSSWGTFGQGTKLEIK
For B1, the EC50 in assay [1] is more than 0.4 µg/mL.

B2: Z012 (antibody, V domains shown)
VH: QVQLVQSGAEVKKSGASVKVSCKASGYSFTTNYIHWVRQAPGQGPEWMGIINPRGGSTTYAQKFQGRVLMTSDTSTSTVYMELSSLRSEDRAVYYCARGKNHQTTVAVLSWYYGMDVWGQGTTVTVSS
VL: DIQMTQSPSSVSASVGDRVTITCRASQGISSWLAWYQQKPGKAPKLLISAASSLQSGVPSRFSGSGSGTDFTLTISNLQPEDFATYFCQQANSFPYTFGQGTKLEIK
In assay [1], B2 displayed an EC50 of 0.2 µg/mL.

B3: Z010 (MEX105_88) (antibody, V domains shown)
VH: EVQLLESGGGLVQPGGSLRLSCAASGFTFSNYAMAWVRQAPGKGLEWVSLIYSGDDSTYYADFVKGRFTISRHNSKNTLSLQMNSLRAEDTAIYYCVKDRGTGWSSIVHWGQGTLVTVSS
VL: DIQMTQSPSTLSASVGDRVTITCRASQTISNWLAWYQQKPGKAPKLLIYQASSLESGVPSRFSGSGSGTEFTLTISSLQPDDFATYYCQQYSTYWTFGQGTKVEIK
In assay [1], B3 came in with an EC50 of more than 0.4 µg/mL.

B4: GRLR/LS (antibody)
heavy: EVQLLESGGGLVQPGGSLRLTCATSGFTFRDYAMSWVRQAPGKGLEWVSSYSGIDDSTYYADSVKGRFTISRDNSKSTLSLHMNSLRAEDSALYFCAKDRGPRGVGELFDSWGQGTLVTVSSASTKGPSVFPLAPSSKSTSGGTAALGCLVKDYFPEPVTVSWNSGALTSGVHTFPAVLQSSGLYSLSSVVTVPSSSLGTQTYICNVNHKPSNTKVDKRVEPKSCDKTHTCPPCPAPELLRGPSVFLFPPKPKDTLMISRTPEVTCVVVDVSHEDPEVKFNWYVDGVEVHNAKTKPREEQYNSTYRVVSVLTVLHQDWLNGKEYKCKVSNKARPAPIEKTISKAKGQPREPQVYTLPPSREEMTKNQVSLTCLVKGFYPSDIAVEWESNGQPENNYKTTPPVLDSDGSFFLYSKLTVDKSRWQQGNVFSCSVLHEALHSHYTQKSLSLSPG
light: DIQMTQSPSTLSASVGDRVTITCRASQSISKWLAWYQQKPGKAPKLLIYTTSTLKSGVPSRFSGSGSGTEFTLTISSLQPDDFATYYCQHFYSVPWTFGQGTKVEIKRTVAAPSVFIFPPSDEQLKSGTASVVCLLNNFYPREAKVQWKVDNALQSGNSQESVTEQDSKDSTYSLSSTLTLSKADYEKHKVYACEVTHQGLSSPVTKSFNRGEC
Molecule B4 displayed a Kd in assay [2] of 5.2 nM.
